US20250230246A1 (SAMYANG BIOPHARM USA, published 2025)

T1: Human CD32a (FcγRIIA) (human, UniProt P12318 34-217, limits assumed)
T1 sequence (looked up): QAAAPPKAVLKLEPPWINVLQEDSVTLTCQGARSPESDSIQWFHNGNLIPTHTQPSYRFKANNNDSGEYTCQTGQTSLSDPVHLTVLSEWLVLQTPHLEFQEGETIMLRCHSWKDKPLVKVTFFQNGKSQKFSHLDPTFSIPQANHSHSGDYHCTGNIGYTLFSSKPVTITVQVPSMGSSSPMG


Experiments:
Human CD32a (FcγRIIA) [1] = target: T1, Human CD32a (FcγRIIA); assay: kinetic binding assay (ka, kd, Rmax in RU; method not named)
Human CD64 (FcγRI) [2] = target: T2, Human CD64 (FcγRI) (human, UniProt P12314 16-288, limits assumed); assay: as above
MICA*008 = MICA*008 (human); assay: as above
MICB*005 = MICB*005 (human); assay: as above
Human CD32a (FcγRIIA) [3] = target: T1, Human CD32a (FcγRIIA); assay: kinetic binding assay (Table 2); ND = not detectable
Human CD64 (FcγRI) [4] = target: T2, Human CD64 (FcγRI); assay: as above

T2 sequence (P12314 16-288 limits assumed): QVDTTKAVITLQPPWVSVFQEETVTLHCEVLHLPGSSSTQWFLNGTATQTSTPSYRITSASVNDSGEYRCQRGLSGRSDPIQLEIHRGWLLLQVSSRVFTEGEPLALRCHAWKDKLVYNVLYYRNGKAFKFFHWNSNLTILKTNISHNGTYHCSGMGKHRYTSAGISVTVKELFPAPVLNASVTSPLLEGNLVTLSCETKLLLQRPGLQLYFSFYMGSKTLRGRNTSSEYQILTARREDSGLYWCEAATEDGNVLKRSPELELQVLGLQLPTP

Row | Kd (Human CD32a (FcγRIIA) [1]) [nM] | koff (Human CD32a (FcγRIIA) [1]) [s⁻¹] | kon (Human CD32a (FcγRIIA) [1]) [M⁻¹ s⁻¹] | Kd (Human CD64 (FcγRI) [2]) [nM] | koff (Human CD64 (FcγRI) [2]) [s⁻¹] | kon (Human CD64 (FcγRI) [2]) [M⁻¹ s⁻¹] | Kd (MICA*008) [nM] | koff (MICA*008) [s⁻¹] | kon (MICA*008) [M⁻¹ s⁻¹] | Kd (MICB*005) [nM] | koff (MICB*005) [s⁻¹] | kon (MICB*005) [M⁻¹ s⁻¹] | binding result (Human CD32a (FcγRIIA) [3]) | binding result (Human CD64 (FcγRI) [4]) | Binder
1 | 1540 | 0.772 | 500000 | 1.61 | 0.00133 | 825000 | 0.98 | 0.000627 | 639000 | 21 | 0.0394 | 1.88e+06 | – | – | SYB-010 (antibody, human IgG1, kappa, also called SYB-010 Fc wildtype) heavy: not shown light: DVVMTQSPSTLSASVGDRVTITCRASAHINNWLAWYQQKPGKAPKLLISDATSLESGVPSRFSGSGSGKEYTLTISSLQPDDFATYYCQHYWSTPWTFGQGTKVEIKRTVAAPSVFIFPPSDEQLKSGTASVVCLLNNFYPREAKVQWKVDNALQSGNSQESVTEQDSKDSTYSLSSTLTLSKADYEKHKVYACEVTHQGLSSPVTKSFNRGEC
2 | – | – | – | – | – | – | 1.04 | 0.000617 | 596000 | 19.8 | 0.0939 | 4.74e+06 | no binding | no binding | SYB-011 (antibody, human IgG1, kappa, L234A L235A, Positions are EU index numbers; also called SYB-011 Fc mutant; effectorless anti-MIC antibody) heavy: not shown light: DVVMTQSPSTLSASVGDRVTITCRASAHINNWLAWYQQKPGKAPKLLISDATSLESGVPSRFSGSGSGKEYTLTISSLQPDDFATYYCQHYWSTPWTFGQGTKVEIKRTVAAPSVFIFPPSDEQLKSGTASVVCLLNNFYPREAKVQWKVDNALQSGNSQESVTEQDSKDSTYSLSSTLTLSKADYEKHKVYACEVTHQGLSSPVTKSFNRGEC
